Tested on: Saccharomyces cerevisiae
Experiment: transcriptional activation domain activity (GFP:mCherry ratio, weighted mean of sorted bins, harmonized to initial dataset scale) (arbitrary fluorescence ratio units); higher = stronger transcriptional activation
Settings: beta-estradiol 1 µM; induction time 4 h
How it was run: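 The activation activity of each tile is the read-weighted mean of bin median fluorescence, averaged across its barcodes and mapped linearly onto the scale of the initial dataset. Tiles were fused to an estradiol-inducible synthetic transcription factor, barcoded, and integrated at URA3 in yeast diploids carrying a GFP reporter. Induction used 1 uM beta-estradiol in SC for 4 hours at 30 °C, after which cells were sorted into 8 GFP:mCherry bins, and any tile with fewer than 50 reads was dropped.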

QPIASCVVKVNFGMISNDSNFCGLVSGIIYVYMGLGGAFMLLVAVCVIKVRYT
transcriptional activation domain activity: 67700

QPPPPPGRKRKKAENGEPSTPAEPRRLRRSHEACARCRSKKIKVSTQASAVIL
transcriptional activation domain activity: 53600

QPQSPYQQAVLPYATIPNSNFQPSSFPVMAVMPPEVQFDGSFLNTLHPHTELP
transcriptional activation domain activity: 34400

QPSAFGQTNTATNAFGQPQQQSAFGSTPTTGAFGSTNTAFGQNRPAFGSTTTP
transcriptional activation domain activity: 23600

QPSQVPQEDQPEHEPERKRRPGRPRGSKNRKPRADSAKQPQQQQQQQQQPHPQ
transcriptional activation domain activity: 59500

QQAGRTMSEGKKKRNTGKEEGEEGDEERKRKRRAEKKRKQRKRRMSKSTGEEE
transcriptional activation domain activity: 31700

QQAHHNVSGPTSKTLLPFLPLHKLMLSNILSPNVRLLFPPLLPLQLSWILWAL
transcriptional activation domain activity: 61800

QQEGLKAELPHDFLFQHGTDDTMYNLTDDLSSSLSSSINSDMMTPNTYSSSFS
transcriptional activation domain activity: 65000

QQGGGAAASSSGAAQTTSDHVHKDEKEEDKDRDKKKEEEEKEKRKKRREKNKK
transcriptional activation domain activity: 23700

QQLGLWIFTWCACNFFLLFFVLKHSIHQKDINILIANVLDIWGLIDPQQILVK
transcriptional activation domain activity: 61600

QQLRIKIDSWSYQYGVDEVIRNRNRNLLIQMYMLLPPARFWLYMKRVRIMLLN
transcriptional activation domain activity: 66500

QQPITYRKTIYDFFSWFLSLGFLNMMVPCFDLLYISRILVVWREVYYCHLIIA
transcriptional activation domain activity: 58100

QQQEEEEKKKEVGGEAEGYEERVINMGAKNSAPMKAGDRIIICTPGGGGWGKS
transcriptional activation domain activity: 9620

QQQQQQQQQQQQQQQQQSLDTLLHHYQSLLSKSDNAIAFDDNVSNSADHNGSN
transcriptional activation domain activity: 22600

QQTGKGKIHRQYALVVVGNGDGLVGYGEGKDEELPRASDKAFAAAVRNMDHVE
transcriptional activation domain activity: 43700

QREARKEHIKSLVAPGLPFLSIDTYKDLNDKWVLKGVFRGLLVLRGLAHHLRT
transcriptional activation domain activity: 63100

QRGKPYDLHSSDGSSEKKRTEKVGLSAGKQHMWILLRPKAAMWAVCVVLASPE
transcriptional activation domain activity: 38700

QRGVGTGVLKVGVDGGGHDEERIRWEAEMVGRERNWVLKKFLGQAISSQLDHA
transcriptional activation domain activity: 44800

QRIIIGSKLILLTRSLLICLLWSLKMAVLDLLAKLMLNMPFERKLIYTLWAIL
transcriptional activation domain activity: 41600

QRKLLWMCVHNIESLVCLGTGRGISSKITDNMLGMLISTKIFNLAEAGLRLEI
transcriptional activation domain activity: 67000

QRMGSMVQRVQSTCRKCRGEGKILLEKDRCKKCAGRGIVKASKKLEVHVDKGM
transcriptional activation domain activity: 20000

QRNDARLIPGIKYLQLVLGRVRCCREIIAILARNGHRLPKGMLPTLVRLWLLM
transcriptional activation domain activity: 35800

QRNPGSRAVIVKPILHVYLEGAPGSLTTRNDSVVGLLVVQLSISLANALAMKA
transcriptional activation domain activity: 22900

QRTNEDLDVDYVPYDHMGISFWDHLDPSRIAVPSHHNIFRIVVWLFFLVVYSQ
transcriptional activation domain activity: 53700

QSFQTLLLILFLPPPLISPFLYVTFFFFPFFPFFFALPRFWDRWALSAFFFLL
transcriptional activation domain activity: 49200

QSGFNIHLKDAGAGAHMELLTLDQILMFFQGLNNLNLLYFWGVGFDRLAILAF
transcriptional activation domain activity: 59200

QSLENQTTETIDVSPDKHRLLIGRGGETRRAIESKFKVQLDIPKQTATGAARN
transcriptional activation domain activity: 64100

QSLNFDLQTNSYYSNARGSDPSSYAIEGEYKTLATDDLGNILNLNYGETNEVI
transcriptional activation domain activity: 80000

QSNWVEGFSTHHEPFRPHKRRIKSVIDCSERTAVLVADLIGGLPCVVELKPKW
transcriptional activation domain activity: 64400

QSPPPAKKAKTAAGGRGKKVKPEPESGSEAEAKPEPVASKRGRVKKPAKAEQE
transcriptional activation domain activity: 14800

QSPSISMEPVSINETGSAYTTTNTALNDIDIPFSINELNELYKQVSSHNSHSQ
transcriptional activation domain activity: 84100

QSQAPARKKGAGGKEGKKGKGGKEGKEKVEKESKKKRKAEAEVVVGDEAAAAA
transcriptional activation domain activity: 33800

QSQPAKQPAKQPATKKSSKSKGSKKSKGSKGKGSRGSKSKAKGSRSKAKGKAH
transcriptional activation domain activity: 23600

QTAVDNMNEQDLDGRNVRVNMANERPASSGGYGGGRGGGRGGFGGGRGRGGYG
transcriptional activation domain activity: 29600

QTDPEKKRVWENKILETLERRPSKKCDYILLRSEQLVGTALIVLVKSELTSVI
transcriptional activation domain activity: 54900

QTIPKNQFASRVWTYMDPEVSRHLIDHYLGSIDLSRLELAVLALKCLYSRHTT
transcriptional activation domain activity: 53900

QTPTDPESYWSDNRCKHSDCQELSPFASVFDLIDHYDHTHAFIPETLVKYSYI
transcriptional activation domain activity: 17600

QTRQDEDHWQRVRELENQSSLYYLPIHEETPFFIDLIPNGFYLETKRSADNLF
transcriptional activation domain activity: 92000

QTTDLVQWLAMPCNLPWVVYVLDRVRNLLRFVIVLSEVEITEDLKRRIMAIYT
transcriptional activation domain activity: 77400

QTTLRAVVSSKEAGVIIGKGGKNVADLRDETGVKAGVSKVVQGVHDRVLTITG
transcriptional activation domain activity: 51200

QTVNFGWSDLPHDVYTHLSSDFENPFYFDGIFPTLVDYSPLIVSPPNFLTLEP
transcriptional activation domain activity: 138000

QTWGVYKRTGGINMYIVSIWVNWFANSIIGILSWLYLWGTIETSFWFFFFLLL
transcriptional activation domain activity: 75500

QVCFLGLSFRCVIGIDQMRCRSGYCSFVSLLYTLGNLSGVFSGIFAYAFSHLN
transcriptional activation domain activity: 66500

QVCTLLGASGGSSFVRGGSYLQGGYGLNTADLWRRNFLVLVGWILFFWLLQTI
transcriptional activation domain activity: 54800

QVGRKANQKEEKETEKERTEKDKKQGRVGVGGVAKTAIVAGAWCYVVGVVAEL
transcriptional activation domain activity: 34600

QVKAKTARKSSRAATKKSSAKRRRDESSEESSDEDESGGERVSRGRGGAVRDK
transcriptional activation domain activity: 36000

QVKGNAATLVVRSLALNADLCKLVECLWFLDRYVLVEGKHWAAALPRMKNLWF
transcriptional activation domain activity: 32200

QVLVLLLILLVFLVFQFLQMLSFLLKLPFVLKLEILLVLLVTKLWVFLFHLLL
transcriptional activation domain activity: 41500

QVPEQVPEQAPEPEKVAEEIVKEEVKKPEEPKAPTPSPAPVAAPRAAAPPAAE
transcriptional activation domain activity: 29500

QVTALVRLIVRLNCELDLNLRGFVAALCIHWIKQSAGSASLKVLLYHAVFLAD
transcriptional activation domain activity: 44900

QWCIYAMLAYVIGWTISFFFSHLFTCYPITVFIEPYYGNKCVKTVPMFIALLY
transcriptional activation domain activity: 67700

QWIHQYIAVPSGTPRDKCHLRQFCYMGLEQWGVGFIIGLLPLLLSVSLCIFLV
transcriptional activation domain activity: 60400

QWSVMTYLYLAVRYFGIFLAMICSYWGGLFYIPETVSHVMFLLMQWSYSVYFC
transcriptional activation domain activity: 78000

QYETPAPKDFLDDFVSLTDFFTFFDDPVDLYDVGSFAFQQPHSMNIDFDPAML
transcriptional activation domain activity: 152000

QYRYLTYSRWLVLLLYVFSWAFTVISMVLVTTNNANFVSCLLSILVCDVFYSG
transcriptional activation domain activity: 39300

QYTKLFFFFFLWPLPSLSLLHLPHFSCSLFPFFPTFAPPFSLSLYLSQSFLFL
transcriptional activation domain activity: 54900

QYYPGQLLSVKLDLFNTMLARVLDLSHMEILHFIVGPRVNIVGRGYPLRMGVV
transcriptional activation domain activity: 34100

RAAAVRGAAQEPQPESRGTSATPARKTAKTEGEEKPAKKRRTAGGDKANKRSK
transcriptional activation domain activity: 9380

RAARARATPARPRPRASASRARGACRASTRGCRRRRSSSSSSRAGARMRATSA
transcriptional activation domain activity: 58600

RAAVSAPVVPTKAAVAPEEPPVKRKRGRPRLTSPRYRPKAAPAKAPAPTPKVV
transcriptional activation domain activity: 50000

RAAVTLCSFFCFFFSWTYSSLFLLSFFIWTGFGRSYGVFFFFFFFFFFFFGGF
transcriptional activation domain activity: 19400

RADADAAASGGHDRRRKRARSDASPSDGHASDASTARRERSSRRSSRSHPRHA
transcriptional activation domain activity: 18500

RADARSTTRPDGSADESFDALEEEVEEYYIYVHYKTITQPSKALNLVALGRLQ
transcriptional activation domain activity: 52000

RADHARRKSPARSRSASASSRSSSRSRSGSRGSDQANRRRRAASPGAQGDGRK
transcriptional activation domain activity: 39900

RAGASPEEASAQSGGSRSKEAEESGSSPTGGEVGKSGGKNSSSSKSVEEKSKD
transcriptional activation domain activity: 29700

RAGGRGREKKKEAEGPKKRRRKGAGGGDGQRARRKDKGRRRGEIARTAEGRNG
transcriptional activation domain activity: 20500

RAITPMRVWMEVHDRAAFKLVWSEVFRLVSVLTDCPLRFKRLHYGGTMLGINT
transcriptional activation domain activity: 45000

RAKADAILRELQDTFFPSAAFRAWLTIVTKLIPLSCAVEARRFRPGLDYTLAT
transcriptional activation domain activity: 77700

RAKKDAKESTTSKDTGTGKGAGSSREGRGSRNTSSRGRGSASGRQSTRKSRAR
transcriptional activation domain activity: 29300

RAKNRAKEEESAAQQKQAQHQQHQQHQQHRQGEEAGSAGRAEAAAAAAAAGAD
transcriptional activation domain activity: 26200

RALLLLSYCAFLKTTGVTDGEIVQLISTSAELKFRPWSLVRGAECVNRCITAL
transcriptional activation domain activity: 47400

RALPPFFSFFPFFRSCPLPLLSLPFSHPCFPLRLVSFFFFLLFCFSFFFILTC
transcriptional activation domain activity: 32900

RAMYAPGFVELTLSYGTGGVTLYARYRSMIDALLKRPHATAFIFAGGYLSWLA
transcriptional activation domain activity: 52600

RANMSTQKLAASASRQINAVVVSAGLMEKTVKVRIGQQKWNAHIRKHFNRTSH
transcriptional activation domain activity: 44400
